Source: PMC11369088

Molecular target: C-terminal FLAG-tag TEX264 (UniProt Q9Y6I9)
Assay: co-IP; FLAG co-IP of FLAG-tagged ER-phagy receptor from HEK293 Tg-NLuc cells in TNI buffer (50 mM Tris pH 7.5, 150 mM NaCl, 0.5% IGEPAL CA-630), four washes; Tg-NLuc on the resin read by nano-glo luciferase assay; against GFP control

Sequence of UniProt Q9Y6I9 (Q9Y6I9 whole entry): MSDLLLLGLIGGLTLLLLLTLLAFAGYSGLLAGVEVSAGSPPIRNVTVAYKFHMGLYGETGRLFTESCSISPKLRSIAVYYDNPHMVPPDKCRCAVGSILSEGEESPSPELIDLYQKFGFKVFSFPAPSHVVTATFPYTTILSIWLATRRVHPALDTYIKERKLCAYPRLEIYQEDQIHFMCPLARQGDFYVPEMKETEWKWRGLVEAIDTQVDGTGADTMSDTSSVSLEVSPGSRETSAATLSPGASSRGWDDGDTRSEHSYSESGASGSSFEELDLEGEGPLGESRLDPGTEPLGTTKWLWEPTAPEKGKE

fold interaction against A2234D Tg: 2 fold
fold interaction against WT Tg: 3 fold
Substance: nanoluciferase-tagged thyroglobulin C1264R (C1264R Tg-NLuc), P01266 20-2768
